Experimental data from paper PMC9939298.

Experiments:
purified protein [1] = substrate: O=c1ccn([C@@H]2O[C@H](CO[P@@](=O)(O)O[P@@](=O)(O)O[C@H]3O[C@H](CO)[C@@H](O)[C@H](O)[C@H]3O)[C@@H](O)[C@H]2O)c(=O)[nH]1; assay: purified protein; conditions: details in supplement Table S2
purified protein [2] = substrate: O=c1ccn([C@@H]2O[C@H](COP(=O)(O)OP(=O)(O)O[C@H]3OC[C@@H](O)[C@H](O)[C@H]3O)[C@@H](O)[C@H]2O)c(=O)[nH]1; assay: purified protein; conditions: acceptor astragaloside III (5); details in supplement Table S2

| Protein | Km (purified protein [1]; acceptor cycloastragenol-3-O-β-D-xyloside (2)) | Km (purified protein [1]; acceptor astragaloside III (5)) | Km (purified protein [2]) |
| --- | --- | --- | --- |
| AmUGT7 (Astragalus mongholicus) (protein) MESQQSHEQLNVTFLPYPTPGHMIPMIDTARLFAKHGATVTIITTHANASTFQKHIDSDISLGYPIKTQLIQFPAAQVGLPDGVENVKDGSSLELLGKISQGIFLLQGQIELLFQHLQPDCIVTDMMYPWTVESAAKLGIPRLHYYSTSYFSNCASYFVRKYRPHDSLDSDDQKFTVPCLPISIEMTPLQLPEWIRTKNPSTGGFFEAMYESEKNSYGTLYNSFHELESDYEQLNKTTMGIKSWSVGPVSAWANKDDEKKANRGHMGESGKELEWLNWLNSKQNDSVLYVSFGSLTRLPNAQLLEIAHGLEISGHNFIWVIRKNDRDEDGDNFLQEFEQRMKESKKGYIIWNWAPQLLILDQPAVGGIVTHCGWNSILESINAGLPMIAWPMFAEQFYNERLLVDVLKIGVPVGVKENKYWFNIGEETLVRREEIMKAVVLLMGSSQESKEMRLKAKKLADASKRTIEEGGHSYNNLLQLIDELKSLKISRELDKSRLDN | 74.8 µM | – | – |
| AmUGT13 (Astragalus mongholicus) (protein) MEREAENRPLKLYFLPFLAAGHMIPLCDIAMLFASRGQDVTVITTPSNAETLLKRKSNNHLHIHTVDIPSDSPQIENITSATNIDSAISVYTAAMLLRQPVEQFLRENPPDCIVADFMYQWVSEIANTLQIPRLAFNGFPLFAVCAMNSFSAHPELFSGSVSEPFNLPDLPHPITMHARSPEGIFRFYEALLKMEVESHGLIVNSFVEIESEYVEHYERTTGHKAWHLGPASLVHASNQQKSERGHISVVSENDCVSWLNSKQPNSVVYISFGSTCRFSDNQLYEIAAGVEASGHPFIWVVLEKLEEKGSKGWLPEGFEERMKEKGMIIRGWAPQVLILDHPAIGGFLTHCGWNSVVEGVSAGVPMMTWPVQADQFYNEKLITEVQGNGVEVGAVEWGVSGYGERKIVISREKIEKAVRRVMDGGDEAEEIRRRARQLAVKAKEAVREGGSSHRNLRELIRDLKLLRDSRSAN | – | 414.7 µM | 479.6 µM |
